To fix the notation:
B1: MYO1C (protein, UniProt O00159 1-1063, looked up)
Unconventional myosin-Ic: MALQVELVPTGEIIRVVHPHRPCKLALGSDGVRVTMESALTARDRVGVQDFVLLENFTSEAAFIENLRRRFRENLIYTYIGPVLVSVNPYRDLQIYSRQHMERYRGVSFYEVPPHLFAVADTVYRALRTERRDQAVMISGESGAGKTEATKRLLQFYAETCPAPERGGAVRDRLLQSNPVLEAFGNAKTLRNDNSSRFGKYMDVQFDFKGAPVGGHILSYLLEKSRVVHQNHGERNFHIFYQLLEGGEEETLRRLGLERNPQSYLYLVKGQCAKVSSINDKSDWKVVRKALTVIDFTEDEVEDLLSIVASVLHLGNIHFAANEESNAQVTTENQLKYLTRLLSVEGSTLREALTHRKIIAKGEELLSPLNLEQAAYARDALAKAVYSRTFTWLVGKINRSLASKDVESPSWRSTTVLGLLDIYGFEVFQHNSFEQFCINYCNEKLQQLFIELTLKSEQEEYEAEGIAWEPVQYFNNKIICDLVEEKFKGIISILDEECLRPGEATDLTFLEKLEDTVKHHPHFLTHKLADQRTRKSLGRGEFRLLHYAGEVTYSVTGFLDKNNDLLFRNLKETMCSSKNPIMSQCFDRSELSDKKRPETVATQFKMSLLQLVEILQSKEPAYVRCIKPNDAKQPGRFDEVLIRHQVKYLGLLENLRVRRAGFAYRRKYEAFLQRYKSLCPETWPTWAGRPQDGVAVLVRHLGYKPEEYKMGRTKIFIRFPKTLFATEDALEVRRQSLATKIQAAWRGFHWRQKFLRVKRSAICIQSWWRGTLGRRKAAKRKWAAQTIRRLIRGFVLRHAPRCPENAFFLDHVRTSFLLNLRRQLPQNVLDTSWPTPPPALREASELLRELCIKNMVWKYCRSISPEWKQQLQQKAVASEIFKGKKDNYPQSVPRLFISTRLGTDEISPRVLQALGSEPIQYAVPVVKYDRKGYKPRSRQLLLTPNAVVIVEDAKVKQRIDYANLTGISVSSLSDSLFVLHVQRADNKQKGDVVLQSDHVIETLTKTALSANRVNSININQGSITFAGGPGRDGTIDFTPGSELLITKAKNGHLAVVAPRLNSR
B2: SSBP1 (protein, UniProt Q04837 17-148, looked up)
Single-stranded DNA-binding …: ESETTTSLVLERSLNRVHLLGRVGQDPVLRQVEGKNPVTIFSLATNEMWRSGDSEVYQLGDVSQKTTWHRISVFRPGLRDVAYQYVKKGSRIYLEGKIDYGEYMDKNNVRRQATTIIADNIIFLSDQTKEKE
B3: TUBA1C (protein, UniProt Q9BQE3 1-449, looked up)
Tubulin alpha-1C chain: MRECISIHVGQAGVQIGNACWELYCLEHGIQPDGQMPSDKTIGGGDDSFNTFFSETGAGKHVPRAVFVDLEPTVIDEVRTGTYRQLFHPEQLITGKEDAANNYARGHYTIGKEIIDLVLDRIRKLADQCTGLQGFLVFHSFGGGTGSGFTSLLMERLSVDYGKKSKLEFSIYPAPQVSTAVVEPYNSILTTHTTLEHSDCAFMVDNEAIYDICRRNLDIERPTYTNLNRLISQIVSSITASLRFDGALNVDLTEFQTNLVPYPRIHFPLATYAPVISAEKAYHEQLTVAEITNACFEPANQMVKCDPRHGKYMACCLLYRGDVVPKDVNAAIATIKTKRTIQFVDWCPTGFKVGINYQPPTVVPGGDLAKVQRAVCMLSNTTAVAEAWARLDHKFDLMYAKRAFVHWYVGEGMEEGEFSEAREDMAALEKDYEEVGADSADGEDEGEEY
B4: IMMT (protein, UniProt Q16891 34-758, looked up)
MICOS complex subunit MIC60: STSGSSGLTTGKIAGAGLLFVGGGIGGTILYAKWDSHFRESVEKTIPYSDKLFEMVLGPAAYNVPLPKKSIQSGPLKISSVSEVMKESKQPASQLQKQKGDTPASATAPTEAAQIISAAGDTLSVPAPAVQPEESLKTDHPEIGEGKPTPALSEEASSSSIRERPPEEVAARLAQQEKQEQVKIESLAKSLEDALRQTASVTLQAIAAQNAAVQAVNAHSNILKAAMDNSEIAGEKKSAQWRTVEGALKERRKAVDEAADALLKAKEELEKMKSVIENAKKKEVAGAKPHITAAEGKLHNMIVDLDNVVKKVQAAQSEAKVVSQYHELVVQARDDFKRELDSITPEVLPGWKGMSVSDLADKLSTDDLNSLIAHAHRRIDQLNRELAEQKATEKQHITLALEKQKLEEKRAFDSAVAKALEHHRSEIQAEQDRKIEEVRDAMENEMRTQLRRQAAAHTDHLRDVLRVQEQELKSEFEQNLSEKLSEQELQFRRLSQEQVDNFTLDINTAYARLRGIEQAVQSHAVAEEEARKAHQLWLSVEALKYSMKTSSAETPTIPLGSAVEAIKANCSDNEFTQALTAAIPPESLTRGVYSEETLRARFYAVQKLARRVAMIDETRNSLYQYFLSYLQSLLLFPPQQLKPPPELCPEDINTFKLLSYASYCIEHGDLELAAKFVNQLKGESRRVAQDWLKEARMTLETKQIVEILTAYASAVGIGTTQVQPE
B5: CPS1 (protein, UniProt P31327 39-1500, looked up)
Carbamoyl-phosphate synthase …: LSVKAQTAHIVLEDGTKMKGYSFGHPSSVAGEVVFNTGLGGYPEAITDPAYKGQILTMANPIIGNGGAPDTTALDELGLSKYLESNGIKVSGLLVLDYSKDYNHWLATKSLGQWLQEEKVPAIYGVDTRMLTKIIRDKGTMLGKIEFEGQPVDFVDPNKQNLIAEVSTKDVKVYGKGNPTKVVAVDCGIKNNVIRLLVKRGAEVHLVPWNHDFTKMEYDGILIAGGPGNPALAEPLIQNVRKILESDRKEPLFGISTGNLITGLAAGAKTYKMSMANRGQNQPVLNITNKQAFITAQNHGYALDNTLPAGWKPLFVNVNDQTNEGIMHESKPFFAVQFHPEVTPGPIDTEYLFDSFFSLIKKGKATTITSVLPKPALVASRVEVSKVLILGSGGLSIGQAGEFDYSGSQAVKAMKEENVKTVLMNPNIASVQTNEVGLKQADTVYFLPITPQFVTEVIKAEQPDGLILGMGGQTALNCGVELFKRGVLKEYGVKVLGTSVESIMATEDRQLFSDKLNEINEKIAPSFAVESIEDALKAADTIGYPVMIRSAYALGGLGSGICPNRETLMDLSTKAFAMTNQILVEKSVTGWKEIEYEVVRDADDNCVTVCNMENVDAMGVHTGDSVVVAPAQTLSNAEFQMLRRTSINVVRHLGIVGECNIQFALHPTSMEYCIIEVNARLSRSSALASKATGYPLAFIAAKIALGIPLPEIKNVVSGKTSACFEPSLDYMVTKIPRWDLDRFHGTSSRIGSSMKSVGEVMAIGRTFEESFQKALRMCHPSIEGFTPRLPMNKEWPSNLDLRKELSEPSSTRIYAIAKAIDDNMSLDEIEKLTYIDKWFLYKMRDILNMEKTLKGLNSESMTEETLKRAKEIGFSDKQISKCLGLTEAQTRELRLKKNIHPWVKQIDTLAAEYPSVTNYLYVTYNGQEHDVNFDDHGMMVLGCGPYHIGSSVEFDWCAVSSIRTLRQLGKKTVVVNCNPETVSTDFDECDKLYFEELSLERILDIYHQEACGGCIISVGGQIPNNLAVPLYKNGVKIMGTSPLQIDRAEDRSIFSAVLDELKVAQAPWKAVNTLNEALEFAKSVDYPCLLRPSYVLSGSAMNVVFSEDEMKKFLEEATRVSQEHPVVLTKFVEGAREVEMDAVGKDGRVISHAISEHVEDAGVHSGDATLMLPTQTISQGAIEKVKDATRKIAKAFAISGPFNVQFLVKGNDVLVIECNLRASRSFPFVSKTLGVDFIDVATKVMIGENVDEKHLPTLDHPIIPADYVAIKAPMFSWPRLRDADPILRCEMASTGEVACFGEGIHTAFLKAMLSTGFKIPQKGILIGIQQSFRPRFLGVAEQLHNEGFKLFATEATSDWLNANNVPATPVAWPSQEGQNPSLSSIRKLIRDGSIDLVINLPNNNTKFVHDNYVIRRTAVDSGIPLLTNFQVTKLFAEAVQKSRKVDSKSLFHYRQYSAGKAA
B6: MAP4K4 (protein, UniProt O95819 2-1239, looked up)
Mitogen-activated protein …: ANDSPAKSLVDIDLSSLRDPAGIFELVEVVGNGTYGQVYKGRHVKTGQLAAIKVMDVTEDEEEEIKLEINMLKKYSHHRNIATYYGAFIKKSPPGHDDQLWLVMEFCGAGSITDLVKNTKGNTLKEDWIAYISREILRGLAHLHIHHVIHRDIKGQNVLLTENAEVKLVDFGVSAQLDRTVGRRNTFIGTPYWMAPEVIACDENPDATYDYRSDLWSCGITAIEMAEGAPPLCDMHPMRALFLIPRNPPPRLKSKKWSKKFFSFIEGCLVKNYMQRPSTEQLLKHPFIRDQPNERQVRIQLKDHIDRTRKKRGEKDETEYEYSGSEEEEEEVPEQEGEPSSIVNVPGESTLRRDFLRLQQENKERSEALRRQQLLQEQQLREQEEYKRQLLAERQKRIEQQKEQRRRLEEQQRREREARRQQEREQRRREQEEKRRLEELERRRKEEEERRRAEEEKRRVEREQEYIRRQLEEEQRHLEVLQQQLLQEQAMLLECRWREMEEHRQAERLQRQLQQEQAYLLSLQHDHRRPHPQHSQQPPPPQQERSKPSFHAPEPKAHYEPADRAREVEDRFRKTNHSSPEAQSKQTGRVLEPPVPSRSESFSNGNSESVHPALQRPAEPQVPVRTTSRSPVLSRRDSPLQGSGQQNSQAGQRNSTSIEPRLLWERVEKLVPRPGSGSSSGSSNSGSQPGSHPGSQSGSGERFRVRSSSKSEGSPSQRLENAVKKPEDKKEVFRPLKPADLTALAKELRAVEDVRPPHKVTDYSSSSEESGTTDEEDDDVEQEGADESTSGPEDTRAASSLNLSNGETESVKTMIVHDDVESEPAMTPSKEGTLIVRQTQSASSTLQKHKSSSSFTPFIDPRLLQISPSSGTTVTSVVGFSCDGMRPEAIRQDPTRKGSVVNVNPTNTRPQSDTPEIRKYKKRFNSEILCAALWGVNLLVGTESGLMLLDRSGQGKVYPLINRRRFQQMDVLEGLNVLVTISGKKDKLRVYYLSWLRNKILHNDPEVEKKQGWTTVGDLEGCVHYKVVKYERIKFLVIALKSSVEVYAWAPKPYHKFMAFKSFGELVHKPLLVDLTVEEGQRLKVIYGSCAGFHAVDVDSGSVYDIYLPTHIQCSIKPHAIIILPNTDGMELLVCYEDEGVYVNTYGRITKDVVLQWGEMPTSVAYIRSNQTMGWGEKAIEIRSVETGHLDGVFMHKRAQRLKFLCERNDKVFFASVRSGGSSQVYFMTLGRTSLLSW
B7: ATP5J2 (protein, UniProt P56134 2-94, looked up)
ATP synthase F(0) complex …: ASVGECPAPVPVKDKKLLEVKLGELPSWILMRDFSPSGIFGAFQRGYYRYYNKYINVKKGSISGITMVLACYVLFSYSFSYKHLKHERLRKYH

One test deals with GFP-14-3-3β. As to the kind of experiment: GFP-14-3-3β co-IP with LC-MS/MS, untreated GFP-14-3-3β versus GFP control (14-3-3 interactome). The following applies: UntrtedvsGFP, Perseus raw output, LFQ intensity difference. The class given is binding, human.
With B1, the Difference was -0.5566.

The same test, now with this note: untreated vs GFP; LFQ intensities; 3 replicates each.
Consider B2, for which the “Difference (log2), untreated vs GFP” value is -1.1951 log2.

Regarding B1, the “Difference (log2), untreated vs GFP” value is -0.5566 log2.

Consider B3, for which the “Difference (log2), untreated vs GFP” value was determined as 0.0777 log2.

In the case of B4, the “Difference (log2), untreated vs GFP” value amounted to 0.387 log2.

As to B5, the “Difference (log2), untreated vs GFP” value is 0.419 log2.

As for B6, the “Difference (log2), untreated vs GFP” value is 0.6698 log2.

Regarding B7, the “Difference (log2), untreated vs GFP” value was -0.05352 log2.

The subject of another test is GFP-14-3-3β and its binding proteins. Nature of the test: GFP-14-3-3β co-IP with LC-MS/MS label-free quantification, untreated versus PP1c-treated. On the set-up: species or system human. The following applies: GFP-14-3-3β co-IP, PP1vsUntrted, Perseus raw output, LFQ intensity difference.
B1 registered a Difference of 0.4615.

The test is the same for the next values; noted with them: PP1 vs untreated; LFQ intensities; 3 replicates each.
Turning to B2, the “Difference (log2), PP1 vs untreated” value is recorded as 0.4442 log2.

With B1, the “Difference (log2), PP1 vs untreated” value is 0.4615 log2.

For B3, the “Difference (log2), PP1 vs untreated” value is given as 0.444 log2.

Turning to B4, the “Difference (log2), PP1 vs untreated” value was 0.4434 log2.

For B5, the “Difference (log2), PP1 vs untreated” value is 0.4276 log2.

For the molecule B6, the “Difference (log2), PP1 vs untreated” value stood at 0.4439 log2.

With B7, the “Difference (log2), PP1 vs untreated” value came to 0.4378 log2.

The values above are taken from paper PMC7367873, “Dissecting the sequence determinants for dephosphorylation by the catalytic subunits of phosphatases PP1 and PP2A” (Nature Communications, 2020).
